According to US20070105771A1 (Y S THERAPEUTICS, published 2007):

Experiments:
Assay in all cases: peptide microarray
[1] = target: T1, human CD26-derived 13 mer peptide 80 (human)
T1 peptide: EVFSAYSALWWSP
Experimental: (§1) The overnight incubation was followed by three washings with each of PBS buffer pH 7.5 and water. The microarrays were then scanned using ArrayWorx-Microarray Scanner.
(§2) The SPOT recognition software package ArrayPro was used for data analysis. The mean of signal intensities from 3 identical subarrays on each microarray image was used for data evaluation.

[2] = target: T2, human CD26-derived 13 mer peptide 15 (human)
T2 peptide: ILVFNAEYGNSSV
Experimental: as §1, §2

[3] = target: T3, human CD26-derived 13 mer peptide 79 (human)
T3 peptide: EEEVFSAYSALWW
Experimental: as §1, §2

[4] = target: T4, human CD26-derived 13 mer peptide 5 (human)
T4 peptide: KLYSLRWISDHEY
Experimental: as §1, §2

[5] = target: T5, human CD26-derived 13 mer peptide 73 (human)
T5 peptide: DIIYNGITDWVYE
Experimental: as §1, §2

[6] = target: T6, human CD26-derived 13 mer peptide 12 (human)
T6 peptide: YKQENNILVFNAE
Experimental: as §1, §2

[7] = target: T7, human CD26-derived 13 mer peptide 76 (human)
T7 peptide: ITDWVYEEEVFSA
Experimental: as §1, §2

[8] = target: T8, human CD26-derived 13 mer peptide 30 (human)
T8 peptide: SISPDGQFILLEY
Experimental: as §1, §2

[9] = target: T9, human CD26-derived 13 mer peptide 119 (human)
T9 peptide: SIQITAPASMLIG
Experimental: as §1, §2

[10] = target: T10, human CD26-derived 13 mer peptide 122 (human)
T10 peptide: PASMLIGDHYLCD
Experimental: as §1, §2

[11] = target: T11, human CD26-derived 13 mer peptide 50 (human)
T11 peptide: ERIPNNTQWVTWS
Experimental: as §1, §2

[12] = target: T12, human CD26-derived 13 mer peptide 131 (human)
T12 peptide: QERISLQWLRRIQ
Experimental: as §1, §2

[13] = target: T13, human CD26-derived 13 mer peptide 36 (human)
T13 peptide: YNYVKQWRHSYTA
Experimental: as §1, §2

[14] = target: T14, human CD26-derived 13 mer peptide 113 (human)
T14 peptide: NTDSLSSVTNATS
Experimental: as §1, §2

[15] = target: T15, human CD26-derived 13 mer peptide 64 (human)
T15 peptide: VKIEPNLPSYRIT
Experimental: as §1, §2

[16] = target: T16, human CD26-derived 13 mer peptide 45 (human)
T16 peptide: DLNKRQLITEERI
Experimental: as §1, §2

[17] = target: T17, human CD26-derived 13 mer peptide 27 (human)
T17 peptide: HSINDYSISPDGQ
Experimental: as §1, §2

[18] = target: T18, human CD26-derived 13 mer peptide 120 (human)
T18 peptide: QITAPASMLIGDH
Experimental: as §1, §2

[19] = target: T19, human CD26-derived 13 mer peptide 47 (human)
T19 peptide: RQLITEERIPNNT
Experimental: as §1, §2

[20] = target: T20, human CD26-derived 13 mer peptide 1 (human)
T20 peptide: YLKNTYRLKLYSL
Experimental: as §1, §2

[21] = target: T21, human CD26-derived 13 mer peptide 32 (human)
T21 peptide: DGQFILLEYNYVK
Experimental: as §1, §2

[22] = target: T22, human CD26-derived 13 mer peptide 49 (human)
T22 construct: also called TEERJPNNTQWVT
T22 peptide: TEERIPNNTQWVT
Experimental: as §1, §2

[23] = target: T23, human CD26-derived 13 mer peptide 44 (human)
T23 peptide: IYDLNKRQLITEE
Experimental: as §1, §2

[24] = target: T24, human CD26-derived 13 mer peptide 7 (human)
T24 peptide: LRWISDHEYLYKQ
Experimental: as §1, §2

[25] = target: T25, human CD26-derived 13 mer peptide 84 (human)
T25 peptide: LWWSPNGTFLAYA
Experimental: as §1, §2

[26] = target: T26, human CD26-derived 13 mer peptide 55 (human)
T26 peptide: TWSPVGHKLAYVW
Experimental: as §1, §2

[27] = target: T27, human CD26-derived 13 mer peptide 99 (human)
T27 peptide: ESLQYPKTVRVPY
Experimental: as §1, §2

[28] = target: T28, human CD26-derived 13 mer peptide 61 (human)
T28 peptide: WNNDIYVKIEPNL
Experimental: as §1, §2

[29] = target: T29, human CD26-derived 13 mer peptide 88 (human)
T29 peptide: FLAYAQFNDTEVP
Experimental: as §1, §2

[30] = target: T30, human CD26-derived 13 mer peptide 133 (human)
T30 peptide: SLQWLRRIQNYSV
Experimental: as §1, §2

[31] = target: T31, human CD26-derived 13 mer peptide 97 (human)
T31 peptide: FYSDESLQYPKTV
Experimental: as §1, §2

[32] = target: T32, human CD26-derived 13 mer peptide 111 (human)
T32 peptide: FFVVNTDSLSSVT
Experimental: as §1, §2

[33] = target: T33, human CD26-derived 13 mer peptide 56 (human)
T33 peptide: SPVGHKLAYVWNN
Experimental: as §1, §2

[34] = target: T34, human CD26-derived 13 mer peptide 37 (human)
T34 peptide: YVKQWRHSYTASY
Experimental: as §1, §2

[35] = target: T35, human CD26-derived 13 mer peptide 129 (human)
T35 peptide: TWATQERISLQWL
Experimental: as §1, §2

[36] = target: T36, human CD26-derived 13 mer peptide 2 (human)
T36 peptide: KNTYRLKLYSLRW
Experimental: as §1, §2

[37] = target: T37, human CD26-derived 13 mer peptide 41 (human)
T37 peptide: YTASYDIYDLNKR
Experimental: as §1, §2

[38] = target: T38, human CD26-derived 13 mer peptide 90 (human)
T38 peptide: AQFNDTEVPLIEY
Experimental: as §1, §2

[39] = target: T39, human CD26-derived 13 mer peptide 108 (human)
T39 peptide: VNPTVKFFVVNTD
Experimental: as §1, §2

[40] = target: T40, human CD26-derived 13 mer peptide 35 (human)
T40 peptide: LEYNYVKQWRHSY
Experimental: as §1, §2

[41] = target: T41, human CD26-derived 13 mer peptide 116 (human)
T41 peptide: SVTNATSIQITAP
Experimental: as §1, §2

[42] = target: T42, human CD26-derived 13 mer peptide 19 (human)
T42 peptide: GNSSVFLENSTFD
Experimental: as §1, §2

- Mean Signal Value [1]: 17.7
- Mean Signal Value [2]: 0
- Mean Signal Value [3]: 96.4
- Mean Signal Value [4]: 43.1
- Mean Signal Value [5]: 33.6
- Mean Signal Value [6]: 0
- Mean Signal Value [7]: 0.0337
- Mean Signal Value [8]: 6.26
- Mean Signal Value [9]: 0.024
- Mean Signal Value [10]: 0.308
- Mean Signal Value [11]: 34.6
- Mean Signal Value [12]: 5.25
- Mean Signal Value [13]: 28.2
- Mean Signal Value [14]: 0.0288
- Mean Signal Value [15]: 0.438
- Mean Signal Value [16]: 0
- Mean Signal Value [17]: 0.00481
- Mean Signal Value [18]: 0.0337
- Mean Signal Value [19]: 0
- Mean Signal Value [20]: 3.5
- Mean Signal Value [21]: 0.0192
- Mean Signal Value [22]: 0.962
- Mean Signal Value [23]: 0
- Mean Signal Value [24]: 20.6
- Mean Signal Value [25]: 17.2
- Mean Signal Value [26]: 124
- Mean Signal Value [27]: 0.0865
- Mean Signal Value [28]: 0.0385
- Mean Signal Value [29]: 0
- Mean Signal Value [30]: 6.51
- Mean Signal Value [31]: 0.0144
- Mean Signal Value [32]: 0
- Mean Signal Value [33]: 11.7
- Mean Signal Value [34]: 98.2
- Mean Signal Value [35]: 23.3
- Mean Signal Value [36]: 16.5
- Mean Signal Value [37]: 0.0673
- Mean Signal Value [38]: 0
- Mean Signal Value [39]: 1.33
- Mean Signal Value [40]: 84.7
- Mean Signal Value [41]: 0.0385
- Mean Signal Value [42]: 0
B1: rhuMAb 411 (antibody, human IgG1, kappa, V domains shown)
VH: EVQLVESGAGVKQPGGTLRLTCTASGFSLTTYGVHWVRQAPGKGLEWVGVIWGDGRTDYDAAFMSRVTISKDTSKSTVYLQMNSLRAEDTAVYYCMRNRHDWFDYWGQGTTVTVSS
VL: DILLTQSPSSLSATPGERATITCRASQGIRNNLNWYQQKPGQAPRLLIYYSSNLQSGVPSRFSGSGSGTDFTLTISRLQPEDVAAYYCQQSIKLPFTFGSGTKVEIKR
notes: also called X411
